# Results taken from patent US20050221355A1, “cDNA for human methylenetetrahydrofolate reductase and uses thereof” (McGill University, priority 1994, published 2005).
# How the values were obtained:
# [1] = tested on: human MTHFR; experiment: Enzymatic and thermolability assay of E. coli extracts expressing wild-type or mutagenized MTHFR cDNA; type: biochemical
# Experimental: Overnight cultures of JM105™ containing vector alone, vector+wild-type MTHFR cDNA, or vector+mutagenized cDNA were grown at 370° C. in 2×YT media with 0.05 mg/ml ampicillin. Fresh 10 ml. cultures of each were inoculated with approximately 50 μL of overnight cultures for a starting O.D. of 0.05, and were grown at 370° C. to an O.D. of 1 at 420 nM. Cultures were then induced for 2 hrs. with 1 mM IPTG and pelleted. The cells were resuspended in TE buffer with 2 μg/ml aprotinin and 2 μg/ml leupeptin (3.5×wet weight of cells). Cell suspensions were sonicated on ice for 3×15 sec. to break open cell membranes and then centrifuged for 30 min. at 4° C. to pellet cell debris and unlysed cells. The supernatant was removed and assayed for protein concentration with the Bio-Rad™ protein assay. […] Enzymatic assays were performed by established procedures; pre-treating the extracts at 46° C. for 5 min. before determining activity assessed thermolability. Specific activities (nmol formaldehyde/hr./mg. protein) were calculated for the 2 cDNA-containing constructs after subtraction of the values obtained with vector alone (to subtract background E. Coli MTHFR activity).
# [2] = tested on: colon carcinoma lines that do not carry the 677C/T mutation in MTHFR; experiment: Methotrexate added to colon carcinoma lines in culture (cell kill), lines without the MTHFR mutation; type: cell-based; details: colon carcinoma lines without the 677C/T MTHFR mutation; read-out: IC50 (concentration needed to kill half the cells)
# Experimental: (§1) Various doses of methotrexate (a drug used in treatment of cancer and arthritis, possibly other diseases) were added to colon carcinoma lines in culture. […] To extrapolate to the human condition, patients with this MTHFR mutation might require lower doses of methotrexate for therapy, or might be subject to methotrexate toxicity at high doses.
# [3] = tested on: colon carcinoma lines that carry the 677C/T mutation in MTHFR; experiment: Methotrexate added to colon carcinoma lines in culture (cell kill), lines with the MTHFR mutation; type: cell-based; details: colon carcinoma lines with the 677C/T MTHFR mutation; read-out: IC50 (concentration needed to kill half the cells)
# Experimental: as §1
Molecule,"mean specific activity before heating ([1]; Exp. 1, vector-alone value subtracted)","mean specific activity before heating ([1]; Exp. 2, vector-alone value subtracted)",IC50 [2],IC50 [3]
"MTHFR: recombinant human methylenetetrahydrofolate reductase, about 70 kDa, expressed in E. coli from the wild-type 2.2 kb cDNA",3.8 nmol formaldehyde/hr./mg. protein,6.2 nmol formaldehyde/hr./mg. protein,,
CN(Cc1cnc2nc(N)nc(N)c2n1)c1ccc(C(=O)N[C@@H](CCC(=O)O)C(=O)O)cc1 [methotrexate],,,~0.15 µM,~0.02 µM
